pKd: −log10 of the molar value.
What was measured:
HLA-C*12:03 = experiment: IEDB peptide-MHC binding, purified MHC/direct/fluorescence; filed as Kd, often an IC50 or EC50 that approximates it; ≥ and ≤ were set here for values at or beyond the usual limits of such assays
HLA-B*15:42 = experiment: IEDB peptide-MHC binding, purified MHC/competitive/fluorescence; filed as Kd, often an IC50 or EC50 that approximates it; ≥ and ≤ were set here for values at or beyond the usual limits of such assays; conditions: source organism: Mycobacterium tuberculosis H37Ra
HLA-B*83:01 = experiment: as above; conditions: source organism: Mycobacterium tuberculosis H37Ra
HLA-B*51:01 = experiment: as above; conditions: source organism: Mycobacterium tuberculosis H37Ra
HLA-B*45:06 = experiment: as above; conditions: source organism: Mycobacterium tuberculosis H37Ra
HLA-B*08:01 = experiment: IEDB peptide-MHC binding, purified MHC/direct/fluorescence; filed as Kd, often an IC50 or EC50 that approximates it; ≥ and ≤ were set here for values at or beyond the usual limits of such assays; conditions: source organism: Mycobacterium tuberculosis C
HLA-B*44:02 = experiment: as above; conditions: source organism: Mycobacterium tuberculosis C
HLA-A*03:01 [1] = experiment: as above
HLA-B*58:01 [2] = experiment: as above
HLA-B*48:01 = experiment: as above
HLA-B*27:05 = experiment: as above
HLA-B*57:01 [3] = experiment: as above
HLA-A*02:01 [4] = experiment: as above; conditions: source organism: Mycobacterium tuberculosis C
HLA-B*46:01 [5] = experiment: as above
HLA-C*05:01 = experiment: as above
HLA-B*15:01 [6] = experiment: as above
HLA-A*29:02 [7] = experiment: as above; conditions: source organism: Mycobacterium tuberculosis C
HLA-A*31:01 = experiment: as above
HLA-B*40:01 = experiment: as above
HLA-A*11:01 = experiment: as above
HLA-A*01:01 = experiment: as above
HLA-B*58:01 [8] = experiment: IEDB peptide-MHC binding, purified MHC/competitive/radioactivity; filed as Kd, often an IC50 or EC50 that approximates it; ≥ and ≤ were set here for values at or beyond the usual limits of such assays
HLA-B*57:01 [9] = experiment: as above
HLA-A*24:03 = experiment: IEDB peptide-MHC binding, purified MHC/direct/fluorescence; filed as Kd, often an IC50 or EC50 that approximates it; ≥ and ≤ were set here for values at or beyond the usual limits of such assays; conditions: source organism: Mycobacterium tuberculosis
HLA-B*35:01 = experiment: IEDB peptide-MHC binding, purified MHC/competitive/radioactivity; filed as Kd, often an IC50 or EC50 that approximates it; ≥ and ≤ were set here for values at or beyond the usual limits of such assays; conditions: source organism: Dengue virus 4 Philippines/H241/1956
HLA-B*53:01 = experiment: as above; conditions: source organism: Dengue virus 4 Philippines/H241/1956
HLA-A*02:01 [10] = experiment: IEDB peptide-MHC binding, purified MHC/competitive/fluorescence; filed as Kd, often an IC50 or EC50 that approximates it; ≥ and ≤ were set here for values at or beyond the usual limits of such assays
HLA-A*02:06 = experiment: as above; conditions: source organism: Bacillus cereus
HLA-B*39:01 [11] = experiment: IEDB peptide-MHC binding, purified MHC/direct/fluorescence; filed as Kd, often an IC50 or EC50 that approximates it; ≥ and ≤ were set here for values at or beyond the usual limits of such assays; conditions: source organism: Bacillus anthracis str. A0465
HLA-A*69:01 [12] = experiment: as above; conditions: source organism: Bacillus anthracis
HLA-B*15:17 = experiment: as above; conditions: source organism: Bacillus anthracis
HLA-B*08:02 = experiment: as above; conditions: source organism: Bacillus anthracis str. A0465
HLA-A*68:02 = experiment: IEDB peptide-MHC binding, purified MHC/competitive/fluorescence; filed as Kd, often an IC50 or EC50 that approximates it; ≥ and ≤ were set here for values at or beyond the usual limits of such assays; conditions: source organism: Entamoeba histolytica
HLA-B*39:01 [13] = experiment: as above; conditions: source organism: Entamoeba histolytica
HLA-A*03:01 [14] = experiment: as above; conditions: source organism: Entamoeba histolytica
HLA-A*02:03 = experiment: as above; conditions: source organism: Entamoeba histolytica
HLA-A*02:12 = experiment: as above; conditions: source organism: Entamoeba histolytica
HLA-A*02:11 = experiment: as above; conditions: source organism: Entamoeba histolytica
HLA-A*69:01 [15] = experiment: as above; conditions: source organism: Entamoeba histolytica
HLA-B*57:01 [16] = experiment: as above; conditions: source organism: Entamoeba histolytica
HLA-B*27:03 = experiment: as above; conditions: source organism: Entamoeba histolytica
HLA-B*46:01 [17] = experiment: as above; conditions: source organism: Entamoeba histolytica
HLA-B*15:01 [18] = experiment: as above; conditions: source organism: Entamoeba histolytica
HLA-A*26:01 = experiment: as above; conditions: source organism: Entamoeba histolytica
HLA-A*02:19 = experiment: as above; conditions: source organism: Entamoeba histolytica
HLA-A*29:02 [19] = experiment: as above; conditions: source organism: Entamoeba histolytica
HLA-A*02:16 = experiment: as above; conditions: source organism: Entamoeba histolytica
[20] = source organism: Mycobacterium tuberculosis C
[21] = source organism: Dengue virus 1 Brazil/97-11/1997
[22] = source organism: Dengue virus 4 Philippines/H241/1956
[23] = source organism: Bacillus cereus
[24] = source organism: Bacillus anthracis
[25] = source organism: Entamoeba histolytica

Sequence AMAGNPVVI has a pKd (HLA-C*12:03; source organism: Leishmania donovani) of 6.14.

Work on FPRYPLNVL yielded a pKd (HLA-B*15:42) of no more than 5.30, a pKd (HLA-B*83:01) of 5.58 and a pKd (HLA-B*51:01) of no more than 4.70. The pKd (HLA-B*45:06) was no more than 5.30, the pKd (HLA-B*08:01) was 5.98 and the pKd (HLA-B*44:02) was no more than 4.70. The pKd (HLA-A*03:01 [1]; [20]) was no more than 4.70, the pKd (HLA-B*58:01 [2]; [20]) was no more than 4.70 and the pKd (HLA-B*48:01; [20]) was no more than 4.70. It also gave a pKd (HLA-B*27:05; [20]) of no more than 4.70, a pKd (HLA-B*57:01 [3]; [20]) of no more than 4.70 and a pKd (HLA-A*02:01 [4]) of no more than 4.70. For the same sequence, the pKd (HLA-B*46:01 [5]; [20]) was no more than 4.70, the pKd (HLA-C*05:01; source organism: Mycobacterium tuberculosis H37Ra) was no more than 4.70 and the pKd (HLA-B*15:01 [6]; [20]) was no more than 4.70. The pKd (HLA-A*29:02 [7]) was no more than 4.70, the pKd (HLA-A*31:01; [20]) was no more than 4.70 and the pKd (HLA-B*40:01; [20]) was no more than 4.70. The pKd (HLA-A*11:01; [20]) was no more than 4.70 and the pKd (HLA-A*01:01; [20]) was no more than 4.70.

For KTSAGVNMCT, the pKd (HLA-B*58:01 [8]; [21]) was 5.34 and the pKd (HLA-B*57:01 [9]; [21]) was 5.95.

LYDAVAALF gave a pKd (HLA-C*05:01; [20]) of 7.14 and a pKd (HLA-A*24:03) of no less than 10.00.

For MAILGETAW, the pKd (HLA-B*58:01 [8]; [22]) was 8.46, the pKd (HLA-B*57:01 [9]; [22]) was 7.63 and the pKd (HLA-B*35:01) was 6.99. It also gave a pKd (HLA-B*53:01) of 8.15.

Sequence MSDIFASEV has a pKd (HLA-A*02:01 [10]; [23]) of 7.52, a pKd (HLA-A*02:06) of 7.92 and a pKd (HLA-B*39:01 [11]) of 6.33. It also gave a pKd (HLA-A*03:01 [1]; [24]) of no more than 4.70, a pKd (HLA-B*58:01 [2]; [24]) of no more than 4.70 and a pKd (HLA-B*48:01; [24]) of no more than 4.70. It also gave a pKd (HLA-B*27:05; [24]) of no more than 4.70, a pKd (HLA-A*69:01 [12]) of no less than 9.00 and a pKd (HLA-B*57:01 [3]; [24]) of no more than 4.70. For the same sequence, the pKd (HLA-B*15:17) was 8.68, the pKd (HLA-B*46:01 [5]; [24]) was no more than 4.70 and the pKd (HLA-C*05:01; [23]) was no less than 9.00. For the same sequence, the pKd (HLA-B*15:01 [6]; [24]) was no more than 4.70, the pKd (HLA-A*31:01; [24]) was no more than 4.70 and the pKd (HLA-B*40:01; [24]) was no more than 4.70. For the same sequence, the pKd (HLA-B*08:02) was no more than 4.70, the pKd (HLA-A*11:01; [24]) was no more than 4.70 and the pKd (HLA-A*01:01; [24]) was 8.14.

In the case of PSVVETLEQM, the pKd (HLA-B*58:01 [8]; [21]) was 6.49.

RASHFRKLF showed a pKd (HLA-A*68:02) of no more than 4.70, a pKd (HLA-B*39:01 [13]) of no more than 4.70 and a pKd (HLA-A*03:01 [14]) of no more than 4.70. The pKd (HLA-A*02:03) was no more than 4.70, the pKd (HLA-A*02:12) was no more than 4.70 and the pKd (HLA-A*02:11) was no more than 4.70. It also gave a pKd (HLA-A*69:01 [15]) of no more than 4.70, a pKd (HLA-B*57:01 [16]) of 6.78 and a pKd (HLA-B*27:03) of no more than 4.70. The pKd (HLA-A*02:01 [10]; [25]) was no more than 4.70, the pKd (HLA-B*46:01 [17]) was no more than 4.70 and the pKd (HLA-B*15:01 [18]) was no more than 4.70. It also gave a pKd (HLA-A*26:01) of no more than 4.70, a pKd (HLA-A*02:19) of no more than 4.70 and a pKd (HLA-A*29:02 [19]) of no more than 4.70. It also gave a pKd (HLA-A*02:16) of no more than 4.70 and a pKd (HLA-C*12:03; [25]) of 7.72.
